Source: the Human Domainome abundance scans (Beltran et al. 2025)
± gives the uncertainty stated by the source.

B1: Histone-lysine N-methyltransferase 2A, residues 1148 to 1194; numbered along this chain, Q03164 (parent)
chain: KGRRSRRCGQCPGCQVPEDCGVCTNCLDKPKFGGRNIKKQCCKMRKC

Variants of: B1
Test: abundance fitness (aPCA) (normalised: wild type 0, dead -1); higher = more abundant; growth selection in yeast, the domain comes from the species named
Conditions: Homo sapiens

Abundance fitness of substitutions, site by site:
C8: Y -0.944 ± 0.11, I -0.585 ± 0.14, K -0.583 ± 0.13, E -0.506 ± 0.11, Q -0.568 ± 0.12, R -0.809 ± 0.1, D -0.442 ± 0.12, F -0.704 ± 0.15, G -0.457 ± 0.084, V -0.691 ± 0.095, W -0.863 ± 0.12, M -0.496 ± 0.12, A -0.786 ± 0.11, L -0.648 ± 0.087, S -0.626 ± 0.095, P -0.613 ± 0.15, T -0.7 ± 0.13
G13: C -0.315 ± 0.086, A -0.219 ± 0.096, E -0.353 ± 0.12, F -0.522 ± 0.11, D -0.313 ± 0.093
G9: W -0.553 ± 0.13, A -0.519 ± 0.1, V -0.726 ± 0.099, Q -0.299 ± 0.13, D -0.773 ± 0.093, P -0.738 ± 0.15, T -0.653 ± 0.13, R -0.55 ± 0.097, L -0.562 ± 0.086, I -0.452 ± 0.13, E -0.866 ± 0.14, Y -0.42 ± 0.15, M -0.256 ± 0.12, C -0.145 ± 0.18, H -0.39 ± 0.17, F -0.469 ± 0.1
R6: C -0.407 ± 0.12, L -0.014 ± 0.093, E 0.138 ± 0.15, N 0.158 ± 0.12, P 0.054 ± 0.095, F 0.1 ± 0.12, D 0.143 ± 0.11, V -0.204 ± 0.11, A 0.182 ± 0.1, S 0.06 ± 0.086, K -0.143 ± 0.13, G -0.088 ± 0.087, W -0.064 ± 0.11, M -0.171 ± 0.14, H 0.089 ± 0.13, I 0.019 ± 0.12, Y -0.207 ± 0.14, T -0.179 ± 0.11
P12: N -0.465 ± 0.19, H -0.579 ± 0.17, V -0.712 ± 0.11, G -0.872 ± 0.096, Y -0.063 ± 0.2, E -0.439 ± 0.12, I -0.31 ± 0.14, M -0.081 ± 0.14, L -0.106 ± 0.088, F -0.63 ± 0.16, T -0.5 ± 0.14, C -0.758 ± 0.14, Q 0.016 ± 0.12, R -0.398 ± 0.082, S -0.676 ± 0.12, W -0.723 ± 0.13, K -0.75 ± 0.16
R7: W -0.204 ± 0.11, Y -0.214 ± 0.17, N -0.041 ± 0.16, S 0.019 ± 0.091, Q -0.188 ± 0.14, H -0.435 ± 0.36, V 0.075 ± 0.1, P 0.294 ± 0.12, A -0.09 ± 0.12, F -0.192 ± 0.15, K -0.103 ± 0.12, L -0.092 ± 0.094, I -0.17 ± 0.16, C -0.493 ± 0.14, D 0.159 ± 0.16, T -0.153 ± 0.13, G -0.036 ± 0.093
R4: H -0.279 ± 0.23, Y -0.184 ± 0.17, I -0.074 ± 0.16, G 0.125 ± 0.1, D 0.045 ± 0.15, L -0.06 ± 0.095, F -0.15 ± 0.15, A -0.035 ± 0.1, V 0.103 ± 0.1, E 0.068 ± 0.12, T 0.148 ± 0.14, P -0.01 ± 0.13, W -0.54 ± 0.17, M 0.141 ± 0.12, K 0.186 ± 0.15, S -0.004 ± 0.1
Q10: H -0.189 ± 0.17, V -0.296 ± 0.091, Y -0.69 ± 0.25, P -0.48 ± 0.11, T -0.23 ± 0.12, D -0.589 ± 0.23, F -0.284 ± 0.17, C -0.459 ± 0.12, L -0.322 ± 0.083, E -0.183 ± 0.12, S -0.069 ± 0.09, A 0.031 ± 0.097, R -0.234 ± 0.088, N -0.436 ± 0.18, W -0.381 ± 0.11, I -0.02 ± 0.12, M -0.246 ± 0.11, G -0.235 ± 0.086
S5: F 0.163 ± 0.15, T -0.24 ± 0.17, K -0.093 ± 0.21, C -0.644 ± 0.12, R -0.226 ± 0.098, A -0.19 ± 0.11, L -0.132 ± 0.1, Q 0.07 ± 0.21, M -0.236 ± 0.17, H -0.25 ± 0.2, D -0.037 ± 0.14, G -0.169 ± 0.084, P -0.137 ± 0.14, Y -0.459 ± 0.23, E -0.091 ± 0.14, I -0.604 ± 0.26, N -0.161 ± 0.24
C11: R -0.81 ± 0.096, M -0.784 ± 0.13, P -0.693 ± 0.17, E -0.799 ± 0.16, Y -0.827 ± 0.11, W -0.674 ± 0.12, H -0.495 ± 0.15, G -0.643 ± 0.099, F -0.719 ± 0.18, V -0.371 ± 0.1, T -0.519 ± 0.16, A -0.696 ± 0.11, L -0.967 ± 0.11, Q -0.915 ± 0.17, K -0.964 ± 0.22, I -0.913 ± 0.18, S -0.55 ± 0.09
R3: V 0.11 ± 0.089, Y -0.301 ± 0.25, M 0.056 ± 0.16, H -0.403 ± 0.25, W -0.518 ± 0.1, I -0.281 ± 0.17, K 0.161 ± 0.18, N 0.017 ± 0.18, Q 0.023 ± 0.13
